Target: hTEM8-AP (UniProt Q9H6X2)
Assay: Biacore affinity measurement of Fab

Sequence of hTEM8-AP (Q9H6X2 33-321): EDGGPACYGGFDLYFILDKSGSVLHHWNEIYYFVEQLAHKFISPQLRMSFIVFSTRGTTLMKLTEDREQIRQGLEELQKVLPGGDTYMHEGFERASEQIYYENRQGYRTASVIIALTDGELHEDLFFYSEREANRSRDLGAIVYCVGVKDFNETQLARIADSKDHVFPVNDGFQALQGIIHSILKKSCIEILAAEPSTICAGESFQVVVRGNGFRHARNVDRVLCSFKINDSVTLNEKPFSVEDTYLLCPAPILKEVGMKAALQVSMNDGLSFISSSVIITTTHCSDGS

B1: M825 Fab (anti-TEM8 fragment antigen-binding) (Fab, V domains shown)
VH: QVQLVQSGAEVKKPGTSVKVSCKVPGYTFSSYAISWVRQAPGQGLEWMGGIIPIFGTTNYAQKFQGRVTITGEESTSTVYMELSSLRSEDTAVYYCARDTDYMFDYWGQGTLVTVSS
VL: SSELTQDPVVSVALGETVSITCQGDNLRDFYASWYQQKPGQAPLLVMYGKNRRPSGIPDRFSGSTSGNTLSLTITGAQAEDEADYYCSSRDNSKHVVFGGGTKVTVL
Kd: 0.0591 nM
koff: 0.00018 s⁻¹
kon: 3.05e+06 M⁻¹ s⁻¹
